Measured values taken from patent US20150344888A1 (Genentech, published 2015).
Where “and” joins values, the source holds several entries; their conditions need not be identical. Equal entries are not always repeated. Where no end group is shown, it is not given here.

T1: biotinylated USP30_cd (USP30 catalytic domain with C77A mutation) (Homo sapiens (Human), UniProt Q70CQ3 57-517, limits assumed, biotinylated (site not stated))
T1 sequence: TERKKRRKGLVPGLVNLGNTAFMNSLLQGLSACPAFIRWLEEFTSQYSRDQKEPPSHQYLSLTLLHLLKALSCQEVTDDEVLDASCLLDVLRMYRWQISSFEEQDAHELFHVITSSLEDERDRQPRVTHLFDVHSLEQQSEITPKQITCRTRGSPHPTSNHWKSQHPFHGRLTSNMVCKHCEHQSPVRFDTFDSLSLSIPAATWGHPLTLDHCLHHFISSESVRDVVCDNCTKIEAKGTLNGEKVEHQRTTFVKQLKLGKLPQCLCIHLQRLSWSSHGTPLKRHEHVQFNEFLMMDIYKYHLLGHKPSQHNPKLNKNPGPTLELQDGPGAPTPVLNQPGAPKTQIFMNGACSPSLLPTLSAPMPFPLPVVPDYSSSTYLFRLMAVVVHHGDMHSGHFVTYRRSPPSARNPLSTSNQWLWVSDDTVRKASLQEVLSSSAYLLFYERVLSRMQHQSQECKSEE

T2: UCHL3 (UniProt P15374 1-230)
T2 sequence (looked up): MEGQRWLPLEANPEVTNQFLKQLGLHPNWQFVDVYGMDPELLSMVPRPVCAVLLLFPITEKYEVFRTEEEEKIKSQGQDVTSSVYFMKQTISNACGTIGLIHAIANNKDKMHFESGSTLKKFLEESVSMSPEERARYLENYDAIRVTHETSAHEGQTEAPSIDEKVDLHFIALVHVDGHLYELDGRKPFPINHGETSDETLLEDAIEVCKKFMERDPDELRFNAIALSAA

T3: USP5 (UniProt P45974 1-858, limits assumed)
T3 sequence (looked up): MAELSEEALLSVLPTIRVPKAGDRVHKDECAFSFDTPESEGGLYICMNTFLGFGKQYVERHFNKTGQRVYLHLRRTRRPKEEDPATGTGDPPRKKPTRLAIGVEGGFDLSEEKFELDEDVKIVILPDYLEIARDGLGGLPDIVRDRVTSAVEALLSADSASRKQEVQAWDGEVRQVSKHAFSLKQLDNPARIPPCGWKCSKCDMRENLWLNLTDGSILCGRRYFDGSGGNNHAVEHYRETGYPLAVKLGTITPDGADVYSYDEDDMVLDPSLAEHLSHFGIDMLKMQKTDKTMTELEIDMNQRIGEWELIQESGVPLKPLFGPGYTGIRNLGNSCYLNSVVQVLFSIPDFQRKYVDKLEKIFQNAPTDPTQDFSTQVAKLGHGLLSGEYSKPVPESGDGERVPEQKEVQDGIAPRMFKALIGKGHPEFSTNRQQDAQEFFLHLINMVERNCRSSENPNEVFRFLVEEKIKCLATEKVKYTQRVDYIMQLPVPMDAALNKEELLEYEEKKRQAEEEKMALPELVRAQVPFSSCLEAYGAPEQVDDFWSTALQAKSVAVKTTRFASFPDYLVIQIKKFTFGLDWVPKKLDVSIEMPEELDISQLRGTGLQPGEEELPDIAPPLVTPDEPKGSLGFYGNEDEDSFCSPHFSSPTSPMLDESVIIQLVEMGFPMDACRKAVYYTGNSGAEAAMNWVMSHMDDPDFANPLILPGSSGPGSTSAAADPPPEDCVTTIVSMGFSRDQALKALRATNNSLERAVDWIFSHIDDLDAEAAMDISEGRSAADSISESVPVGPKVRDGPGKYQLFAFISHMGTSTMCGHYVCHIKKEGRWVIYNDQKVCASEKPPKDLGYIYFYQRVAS

T4: USP30 (active enzyme in the ubiquitin-AMC assay) (Homo sapiens (Human), UniProt Q70CQ3 57-517, limits assumed)
T4 sequence: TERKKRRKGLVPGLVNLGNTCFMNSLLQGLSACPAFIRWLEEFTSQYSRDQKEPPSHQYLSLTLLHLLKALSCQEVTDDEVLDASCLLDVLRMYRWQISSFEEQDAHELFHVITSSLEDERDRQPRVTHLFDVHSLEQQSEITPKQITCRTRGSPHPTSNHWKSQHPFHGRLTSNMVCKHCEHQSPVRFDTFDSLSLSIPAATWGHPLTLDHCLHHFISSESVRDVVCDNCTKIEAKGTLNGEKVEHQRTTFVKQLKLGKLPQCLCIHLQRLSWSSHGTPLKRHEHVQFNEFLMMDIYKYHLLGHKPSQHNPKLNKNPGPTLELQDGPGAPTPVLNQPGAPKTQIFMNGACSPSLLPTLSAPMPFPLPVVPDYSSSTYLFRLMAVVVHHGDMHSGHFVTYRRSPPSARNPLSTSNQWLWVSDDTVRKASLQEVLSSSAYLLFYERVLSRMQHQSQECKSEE

T5: USP2 (UniProt O75604 259-605, limits assumed)
T5 sequence (looked up): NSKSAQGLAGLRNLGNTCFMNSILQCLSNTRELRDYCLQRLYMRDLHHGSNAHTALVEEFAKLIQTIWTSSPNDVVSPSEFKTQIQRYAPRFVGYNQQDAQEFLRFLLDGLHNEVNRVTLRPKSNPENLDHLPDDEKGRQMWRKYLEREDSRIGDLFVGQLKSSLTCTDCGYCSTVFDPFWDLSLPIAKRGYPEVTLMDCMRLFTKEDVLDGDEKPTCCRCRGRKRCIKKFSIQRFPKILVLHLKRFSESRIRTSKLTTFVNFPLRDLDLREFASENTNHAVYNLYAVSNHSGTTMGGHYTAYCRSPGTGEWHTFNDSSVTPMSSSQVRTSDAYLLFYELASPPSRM

B1: peptide USP30-8 (peptide)
peptide: VSRCYIFWNEMFCDVE
modifications: not fully specified (bridges); cysteine pairing not given here
notes: also called pep8
B2: peptide USP30-3 (peptide)
peptide: PLYCFYDLTYGYLCFY
notes: also called pep3; parent USP30-3

Tests used:
[1] = biological target: T1, biotinylated USP30_cd (USP30 catalytic …); assay: spot phage ELISA on biotinylated USP30_cd
Text: The selection identified peptide USP30_{—}3 and USP30_{—}8, which had moderate spot ELISA signals (signal/noise ratios of ˜5).

UCHL3 = biological target: T2, UCHL3; assay: cell-based or functional assay
USP5 = biological target: T3, USP5; assay: cell-based or functional assay
[2] = biological target: T4, USP30 (active enzyme in the …); assay: cell-based or functional assay
USP2 = biological target: T5, USP2; assay: cell-based or functional assay

Row | Binder | signal/noise ratio (spot ELISA) [1] | IC50, inhibition of ubiquitin-AMC cleavage (initial rate, fluorescence) (UCHL3) | IC50, inhibition of ubiquitin-AMC cleavage (initial rate, fluorescence) (USP5) | fold higher IC50 than for USP30 (USP5) | IC50, inhibition of ubiquitin-AMC cleavage (initial rate, fluorescence) [2] | IC50, inhibition of ubiquitin-AMC cleavage (initial rate, fluorescence) (USP2) | fold higher IC50 than for USP30 (USP2)
1 | B1 | ~5 | – | – | – | – | – | –
2 | B2 | ~5 | > 200 µM | 49.4 µM | > 6 fold | 8 µM | ~100 µM and > 200 µM | > 10 fold
